Tests used:
[1] = target: HsdR subunit encoded by the chromosome of the IL1403 strain (L. lactis ssp lactis (strain IL1403)); test: cell-based or functional assay
[2] = target: HsdM subunit encoded by the chromosome of the IL1403 strain (L. lactis ssp lactis (strain IL1403)); test: cell-based or functional assay
Sequence of HsdM subunit encoded by the chromosome of the IL1403 strain (L. lactis ssp lactis (strain IL1403)) (chain, as listed by the source limits assumed): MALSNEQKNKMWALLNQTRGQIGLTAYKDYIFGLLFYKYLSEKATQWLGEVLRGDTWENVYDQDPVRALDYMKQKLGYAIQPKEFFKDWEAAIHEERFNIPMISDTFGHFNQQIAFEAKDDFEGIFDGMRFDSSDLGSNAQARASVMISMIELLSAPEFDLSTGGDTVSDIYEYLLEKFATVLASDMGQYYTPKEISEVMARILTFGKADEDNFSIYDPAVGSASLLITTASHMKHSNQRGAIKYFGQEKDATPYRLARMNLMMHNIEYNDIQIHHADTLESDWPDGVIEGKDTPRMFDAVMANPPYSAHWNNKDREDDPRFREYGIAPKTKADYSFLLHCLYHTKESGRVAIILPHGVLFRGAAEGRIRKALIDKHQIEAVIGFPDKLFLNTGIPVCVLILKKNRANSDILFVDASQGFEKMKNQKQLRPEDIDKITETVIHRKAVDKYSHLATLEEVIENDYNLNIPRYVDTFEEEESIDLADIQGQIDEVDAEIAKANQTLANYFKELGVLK

Sequence of HsdR subunit encoded by the chromosome of the IL1403 strain (L. lactis ssp lactis (strain IL1403)) (chain, as listed by the source limits assumed): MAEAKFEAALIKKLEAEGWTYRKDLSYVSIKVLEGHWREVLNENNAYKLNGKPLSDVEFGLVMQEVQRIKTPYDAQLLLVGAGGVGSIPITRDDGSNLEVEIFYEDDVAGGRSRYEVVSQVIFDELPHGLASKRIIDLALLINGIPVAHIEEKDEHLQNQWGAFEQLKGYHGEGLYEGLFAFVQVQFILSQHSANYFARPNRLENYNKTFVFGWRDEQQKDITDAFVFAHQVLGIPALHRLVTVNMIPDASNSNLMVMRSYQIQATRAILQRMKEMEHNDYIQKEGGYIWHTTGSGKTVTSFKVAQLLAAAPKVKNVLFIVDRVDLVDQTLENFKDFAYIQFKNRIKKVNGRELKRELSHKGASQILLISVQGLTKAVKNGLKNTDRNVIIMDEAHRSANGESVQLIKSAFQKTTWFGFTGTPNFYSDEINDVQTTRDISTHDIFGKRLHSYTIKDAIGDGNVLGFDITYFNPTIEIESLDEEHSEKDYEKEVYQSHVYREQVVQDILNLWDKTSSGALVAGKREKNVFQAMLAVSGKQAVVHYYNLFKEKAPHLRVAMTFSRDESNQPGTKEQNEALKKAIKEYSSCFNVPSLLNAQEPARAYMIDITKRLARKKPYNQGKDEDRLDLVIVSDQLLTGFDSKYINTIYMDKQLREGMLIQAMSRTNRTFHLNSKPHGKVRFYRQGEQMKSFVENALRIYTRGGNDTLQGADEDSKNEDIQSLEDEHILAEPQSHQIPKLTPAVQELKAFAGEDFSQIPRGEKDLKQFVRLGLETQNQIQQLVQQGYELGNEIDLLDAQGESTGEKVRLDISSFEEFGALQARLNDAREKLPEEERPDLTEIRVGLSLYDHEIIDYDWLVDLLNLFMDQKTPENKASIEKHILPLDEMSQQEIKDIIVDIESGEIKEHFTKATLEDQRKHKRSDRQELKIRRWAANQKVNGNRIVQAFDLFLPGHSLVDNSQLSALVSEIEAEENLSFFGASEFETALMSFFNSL

Row | Substance | EOP (efficacy of propagation) of bIL67 phage on IL1403 transformed with pIL7, against IL1403 without plasmids [1] | EOP (efficacy of propagation) of bIL67 phage on IL1403 transformed with pIL7, against IL1403 without plasmids [2] | EOP (efficacy of propagation) of bIL67 phage on IL1403 transformed with pIL261, against IL1403 without plasmids [1] | EOP (efficacy of propagation) of bIL67 phage on IL1403 transformed with pIL261, against IL1403 without plasmids [2]
1 | HsdS subunit encoded by the pIL7 plasmid | 0.006 | 0.006 |  | 
2 | HsdS subunit encoded by the pIL261 plasmid (orf2 of the 3.7 kb EcoRI insert from pIL103) |  |  | 6e-07 | 6e-07
